Patent US6858210B1, “Therapeutic and diagnostic domain 1 β2GPI polypeptides and methods of using same” (La Jolla Pharmaceutical Co., priority 1998, dated 2005)
Where two headings read alike, the source gives them in different places.

Experiments:
[1] = system: antiphospholipid antibody in plasma from patient 6501; assay: Competitive antibody binding ELISA with patient plasma on β2GPI coated plates; parameters: species or system human; conditions: plasma patient 6501, 1:200
Description: Nunc Maxisorp microplates (Nalge Nunc International, Denmark) were coated with 100 μL/well of β2GPI at 2.5 μg/mL in PBS, incubated for 2 hours at room temperature, and blocked for 2 hours at room temperature with 250 μl/well of 2% nonfat milk with […] (Sigma Chemical Co.). […] After incubation for one hour at room temperature the plates were washed 5× with TBS. To each well was added 100 μL of alkaline phosphatase-conjugated anti-human IgG, gamma chain specific (Zymed) diluted 1:1000 in 2% nonfat milk with 0.4% Tween-80. After one hour at room temperature the plates were washed 5× with TBS. To each well was added 100 μl PPMP chromogenic substrate solution for color development at room temperature. Optical absorbance per well was determined at A550nm in a commercial microplate reader (Bio-Tek Instruments EL3 11).

[2] = system: affinity purified β2GPI-dependent antiphospholipid antibody; assay: Direct binding ELISA, nickel chelate-coated wells charged with recombinant β2GPI proteins (no cardiolipin); parameters: species or system human; conditions: O.D. at 550 nm
Outline: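 His-tagged recombinant β2GPI mutants captured on nickel chelate wells in serial dilution (2 h, room temperature), no anionic phospholipid; GST-6his as negative control. Affinity-purified patient antibodies (11 patients) or rabbit anti-β2GPI detected by alkaline phosphatase anti-IgG, OD 550 nm.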

rabbit anti-β2GPI = assay: Direct binding ELISA, nickel chelate-coated wells, rabbit antibody; conditions: O.D. at 550 nm
Description: Nickel Chelate-coated microwell plates (NCP 010 00 Xenopore Corp. 374 Midland Ave. Saddle Brook, N.J. USA) were coated with 50 μl of serial dilutions of the various recombinant β2GPI, in PBS, at room temperature for 2 hours. The plates were washed three times with PBS and blocked with 75 μl of a 1% gelatin (Sigma #G-2500) in PBS for one hour room temperature. […] The plates were washed three times with PBS, 50 μl of alkaline phosphatase conjugated anti-immunoglobulin (anti-human IgG, gamma chain specific, Zymed #62-8422) or anti-rabbit IgG (Zymed #62-6122) diluted appropriately in 1% gelatin was added and incubated at 37° C. for one hour. The plates were washed three times with PBS, 50 μl of alkaline phosphatase PPMP chromogenic substrate solution was added and incubated for 30 minutes at room temperature. The optical density, at 550 nm, was determined by reading the plates in a microplate autoreader (Bio-Teck Instruments, model EL311).
Seven to nine different recombinant β2GPI mutant proteins were examined to determine if they could support the direct binding of affinity purified β2GPI-dependent antiphospholipid antibody preparations in the absence of anionic phospholipid. All recombinant mutant β2GPI were assayed with affinity purified β2GPI-dependent antiphospholipid antibody preparations from 11 different patients. Each mutant recombinant β2GPI protein was tested, in a dose dependent fashion and GST-6his was included as a negative control. The recombinant mutant β2GPI proteins were bound to nickel coated microtiter plates via their 6-his tail. All recombinant mutant β2GPI proteins tested bound rabbit anti-β2GPI showing that they were assessable by antibody (FIG. 5).

[3] = system: affinity purified β2GPI-dependent antiphospholipid antibody; assay: Competitive inhibition ELISA: recombinant β2GPI proteins compete for antibody binding to coated full length recombinant β2GPI; parameters: species or system human; conditions: for IC50: read-out: 50% (concentration to give 50% inhibition)
Outline: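 Wells coated with full-length recombinant β2GPI (10 μg/ml, pH 9.5) and milk-blocked. Serially diluted recombinant β2GPI proteins were co-incubated with a fixed concentration of patient antibody for 1 h at 37 °C. Bound IgG detected with alkaline phosphatase anti-human IgG at OD550; percent inhibition is background-corrected against inhibitor-free wells.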

B1: Reduced and alkylated domain 1: β2GPI domain 1 polypeptide that had been reduced and alkylated, negative control (protein)
chain: GRTCPKPDDLPFSTVVPLKTFYEPGEEITYSCKPGYVSRGGMRKFICPLTGLWPINTLKCTPRV
modifications: also: reduced and alkylated cysteines, alkylating agent not given here
notes: β2GPI domain 1 polypeptide that had been reduced and alkylated, negative control
competition for antiphospholipid antibody binding to β2GPI [1]: no such competition

B2: ---45: recombinant β2GPI deletion mutant with domains 4, 5 (protein)
chain: GREVKCPFPSRPDNGFVNYPAKPTLYYKDKATFGCHDGYSLDGPEEIECTKLGNWSAMPSCKASCKLPVKKATVVYQGERVKIQEKFKNGMLHGDKVSFFCKNKEKKCSYTEDAQCIDGTIEVPKCFKEHSSLAFWKTDASDVKPCGHHHHHH
Maximum O.D. ([2]; Ab 6203): 0.142 | Maximum O.D. ([2]; Ab 6501): 0.086 | Maximum O.D. ([2]; Ab 6626): 0.086 | Maximum O.D. ([2]; Ab 6632): 0.000 | Maximum O.D. ([2]; Ab 6641): 0.112 | Maximum O.D. ([2]; Ab 6652): 0.013 | Maximum O.D. ([2]; Ab 6701): 0.000 | Maximum O.D. ([2]; Ab 7008): 0.030 | Maximum O.D. ([2]; Ab 7015): 0.167 | Maximum O.D. ([2]; Ab 7101): 0.167 | Maximum O.D. (rabbit anti-β2GPI): 1.941 | Max (maximum inhibition observed at concentrations tested) ([3]; Ab 6203): 10% | IC50 ([3]; Ab 6203): > 40 µM | Max (maximum inhibition observed at concentrations tested) ([3]; Ab 6501): 15% | IC50 ([3]; Ab 6501): > 40 µM | Max (maximum inhibition observed at concentrations tested) ([3]; Ab 6509): 20% | IC50 ([3]; Ab 6509): > 5 µM | Max (maximum inhibition observed at concentrations tested) ([3]; Ab 6626): 15% | IC50 ([3]; Ab 6626): > 40 µM | Max (maximum inhibition observed at concentrations tested) ([3]; Ab 6632): 20% | IC50 ([3]; Ab 6632): > 40 µM | Max (maximum inhibition observed at concentrations tested) ([3]; Ab 6641): 20% | IC50 ([3]; Ab 6641): > 5 µM | Max (maximum inhibition observed at concentrations tested) ([3]; Ab 6644): 10% | IC50 ([3]; Ab 6644): > 40 µM | Max (maximum inhibition observed at concentrations tested) ([3]; Ab 6652): 20% | IC50 ([3]; Ab 6652): > 5 µM | Max (maximum inhibition observed at concentrations tested) ([3]; Ab 6701): 15% | IC50 ([3]; Ab 6701): > 5 µM | Max (maximum inhibition observed at concentrations tested) ([3]; Ab 7008): 20% | IC50 ([3]; Ab 7008): > 40 µM | Max (maximum inhibition observed at concentrations tested) ([3]; Ab 7015): 10% | IC50 ([3]; Ab 7015): > 40 µM | Max (maximum inhibition observed at concentrations tested) ([3]; Ab 7101): 5% | IC50 ([3]; Ab 7101): > 40 µM | Max (maximum inhibition observed at concentrations tested) ([3]; Ab 7104): 5% | IC50 ([3]; Ab 7104): > 40 µM
